{"source": "patent US20030008857A1", "about": "“Photodynamic therapy (PDT) in combination with factors that bind cell surface apoptosis-inducing receptors” (priority 1999, published 2003)", "type_in_all_cases": "cell-based, human", "key": {"[1]": {"system": "IETDase (caspase 8)", "assay": "Protease assay of cell extracts with Ac-IETD-AMC", "settings": "FasL 7.5 ng/ml, 3 hours, Jurkat whole cell extracts", "protocol": "(§1) The human Jurkat T cell line containing a neomycin resistance gene was obtained from Dr. Charles Rudin (University of Chicago). Cells were maintained in RPMI 1640 medium containing 10% heat-inactivated fetal calf serum (FCS) with penicillin (100 U/mL), streptomycin (100 μg/mL), 20 mM HEPES, 2 mM L-glutamine and G418 (1 μg/ml) purchased from Gibco BRL (Burlington, Ontario) in a CO2 incubator at 37° C. To elicit apoptosis with PDT, Jurkat cells were incubated with different amounts of liposomally formulated benzoporphyrin derivative monoacid ring A (BPD-MA, verteporfin, QLT PhotoTherapeutics, Inc., Vancouver, Canada) for one hour at 37° C. under light-protected conditions. The culture medium used for experiments was identical to that used for the passage of the cells except that FCS was used at a concentration of 5%. Experiments were conducted either in 6-well culture plates at 5×10^6 cells in a volume of 4 ml per well or in 96-well microtiter plates at 1×10^5 cells per well at 0.2 ml per well. […]\n(§2) These sequences are denoted by letter codes for each amino acid. […] The reaction mixture was incubated at 37° C. for 1 (DEVD.AMC) or 24 (VEID.AMC and IETH.AMC) h and fluorescence was measured using an excitation at 380 nm and an emission wavelength of 460 nm with a CytoFluor™ 2350 fluorescent measuring system (Perseptive Biosystems, Burlington, Ont)."}, "[2]": {"system": "VEIDase (caspase 6)", "assay": "Protease assay of cell extracts with Ac-VEID-AMC", "settings": "FasL 7.5 ng/ml, 3 hours, Jurkat whole cell extracts", "protocol": "as §1, §2"}, "[3]": {"system": "Jurkat T cells", "assay": "DNA fragmentation (sub-diploid DNA) by PI staining and flow cytometry", "protocol": "(§3) The human Jurkat T cell line containing a neomycin resistance gene was obtained from Dr. Charles Rudin (University of Chicago). Cells were maintained in RPMI 1640 medium containing 10% heat-inactivated fetal calf serum (FCS) with penicillin (100 U/mL), streptomycin (100 μg/mL), 20 mM HEPES, 2 mM L-glutamine and G418 (1 μg/ml) purchased from Gibco BRL (Burlington, Ontario) in a CO2 incubator at 37° C. To elicit apoptosis with PDT, Jurkat cells were incubated with different amounts of liposomally formulated benzoporphyrin derivative monoacid ring A (BPD-MA, verteporfin, QLT PhotoTherapeutics, Inc., Vancouver, Canada) for one hour at 37° C. under light-protected conditions. The culture medium used for experiments was identical to that used for the passage of the cells except that FCS was used at a concentration of 5%. Experiments were conducted either in 6-well culture plates at 5×10^6 cells in a volume of 4 ml per well or in 96-well microtiter plates at 1×10^5 cells per well at 0.2 ml per well. Cells were irradiated with light of a wavelength of 690 nm delivered at 65-73 mW/sec from light emitting diodes (LED) to achieve a total light dose of 5 J/cm^2. Cells were returned to the incubator until required for analysis.\n(§4) FasL and TRAIL as used were recombinant preparations. FasL was obtained from Upstate Biotechnology (Lake Placid NY) and corresponded to amino acids 103-281 of the soluble domain of human FasL. TRAIL was obtained from BIOMOL Research Laboratories (Plymouth Meeting, Pa.) and corresponded to residues 114-281 of the soluble domain of human TRAIL. FasL and TRAIL were usually added immediately following the treatment of cells with PDT, although in one series of experiments these factors were added at 1, 2 or 3 hours post-irradiation.\nThe proportion of cells containing sub-diploid levels of DNA 24 hours following treatment was determined using a propidium iodide (“PI”) fluorescence analysis procedure as described by Telford et al. (“Rapid Quantitation of Apoptosis in Pure and Heterogeneous Cell Populations Using Flow Cytometry” J. Immunol Methods 172:1-6 (1994)) or by Darzynkieicz et al. (“Features of Apoptotic Cells Measured by Flow Cytometry”, Cytometry, 13:795-808 (1992)).\nTwenty four hours following PDT, 5×10^5 cells were washed twice with ice-cold PBS and then permeablized and fixed in 80% ethanol at 4° C. for one hour. The cells were again washed in ice-cold PBS and stained with PI (50 μg/mL) in PBS with simultaneous deoxyribose nuclease-free ribonuclease A (5 U/mL) treatment. These samples were analyzed by flow cytometry. The percentage of apoptotic cells was calculated using single color analysis for PI fluorescence with a Coulter XL flow cytometer (Coulter Electronics, Inc., Hialeah, Fla.). […] The degree of separation between the apoptotic population and the G0/G1 peak is readily apparent and the percentage of apoptotic cells is determined from the subsequent histogram."}, "[4]": {"system": "caspase-3, -6 and -8", "assay": "Caspase cleavage activity of cell extracts, statements covering DEVD, VEID and IETD peptides together", "protocol": "as §3, §4\nWhole cell lysates were prepared by washing 1×10^7 cells per sample twice with ice-cold PBS. Cells were disrupted with 1 mL of lysis buffer [1% Nonidet P-40 detergent (NP-40), 20 mM Tris-HCl, pH 8.0, 137 mM NaCl, 10% glycerol, 1 mM phenylmethylsulfonyl fluoride (PMSF) aprotinln (0.15 U/mL) and 1 mM sodium orthovanadate] for 20 minutes on ice. Lysates were centrifuged for 10 minutes at 15,800×g at 4° C.\nThese sequences are denoted by letter codes for each amino acid. To evaluate relative DEVDase (caspases 3 and 7), VEIDase (caspase 6) and IETDase (caspase 8) cleavage activity, Jurkat cell lysates were incubated with caspase-specific fluorescent substrates as described by Granville et al. (“Photodynamic therapy induces caspase-3 activation in HL-60 cells”, Cell Death Differ., 4, 623-629 (1997)). Briefly, lysates were incubated with reaction buffer (20 mM Tris pH 7.5, 137 mM NaCl, 1% NP-40, 10% glycerol) containing 100 μM of the caspase substrates Ac-DEVD-AMC (Calbiochem, Cambridge, Mass.), Ac-VEID-AMC (Calbiochem, Cambridge, Mass.), Ac-lETD-AMC (BIOMOL, Plymouth Meeting Pa.), and Ac-LEHD-AMC (Calbiochem, Cambridge, Mass.). The letter codes for the amino acid residues present within the inhibitor peptides are as following: D=aspartic acid; E=glutamic acid; H=histidine; I=isoleucine; T=threonine; V=valine. The reaction mixture was incubated at 37° C. for 1 (DEVD.AMC) or 24 (VEID.AMC and IETH.AMC) h and fluorescence was measured using an excitation at 380 nm and an emission wavelength of 460 nm with a CytoFluor™ 2350 fluorescent measuring system (Perseptive Biosystems, Burlington, Ont)."}, "[5]": {"system": "cytochrome c", "assay": "Cytochrome c in cytosolic extracts of Jurkat cells (immunoblot)", "settings": "3 hours", "protocol": "as §3\n(§5) FasL and TRAIL as used were recombinant preparations. […]"}, "[6]": {"system": "caspase-3, -6, -8 and -9 and PARP", "assay": "Western immunoblot of caspase processing and PARP cleavage in Jurkat cells", "settings": "3 hours", "protocol": "as §3, §5"}, "[7]": {"system": "DEVDase (caspases 3 and 7)", "assay": "Protease assay of cell extracts with Ac-DEVD-AMC", "settings": "FasL 7.5 ng/ml, 3 hours, Jurkat whole cell extracts", "protocol": "as §1, §2"}, "[8]": {"settings": "FasL 7.5 ng/ml or TRAIL 20 ng/ml"}}, "note": "Entries after “also recorded” stand apart in the source; their conditions may differ."}
{"molecule": "FasL: recombinant, amino acids 103-281 of the soluble domain of human FasL (Upstate Biotechnology) (protein, UniProt P48023 103-281, looked up, fragment) QLFHLQKELAELRESTSQMHTASSLEKQIGHPSPPPEKKELRKVAHLTGKSNSRSMPLEWEDTYGIVLLSGVKYKKGGLVINETGLYFVYSKVYFRGQSCNNLPLSHKVYMRNSKYPQDLVMMEGKMMSYCTTGQMWARSSYLGAVFNLTSADHLYVNVSELSLVNFEESQTFFGLYKL", "values": [{"measurement": "increase in IETDase-like activity versus control cells", "setting": "[1]", "result": "one-and-half fold"}, {"measurement": "increase in VEIDase-like cleavage activity versus control cells", "setting": "[2]", "result": "approximately two-fold"}, {"measurement": "increase in proportion of cells with sub-diploid DNA versus light-treated control cells", "setting": "[3]; FasL 7.5 ng/ml added after PDT with verteporfin 2 ng/ml, 5 J/cm^2, 24 hours", "result": "twelve-fold"}, {"measurement": "increase in the number of cells displaying DNA fragmentation", "setting": "[3]; FasL 7.5 ng/ml by itself, 24 hours (FIG. 2)", "result": "seven-fold"}, {"measurement": "cells with induced DNA fragmentation", "setting": "[3]; FasL 200 ng/ml, within 24 hours", "result": "approximately 60%"}, {"measurement": "proportion of cells with sub-diploid DNA compared with PDT alone", "setting": "[3]; TRAIL 20 ng/ml or FasL 7.5 ng/ml added after PDT with verteporfin 0.5 and 1 ng/ml", "result": "a greater proportion of cells contained a sub-diploid level of DNA"}, {"measurement": "DNA fragmentation induced by the factor without PDT across addition times", "setting": "[3]; added at 5 minutes, 1, 2 or 3 hours, FasL 7.5 ng/ml, TRAIL 20 ng/ml, individually or in combination", "result": "a comparable level of DNA fragmentation"}, {"measurement": "change of the combined effect with PDT on DNA fragmentation", "setting": "[3]; factor added at 3 hours post-PDT (verteporfin 2 ng/ml)", "result": "a modest decline"}, {"measurement": "capacity to accentuate PDT-mediated apoptosis (DNA fragmentation)", "setting": "[3]; factor added up to 3 hours after PDT (verteporfin 2 ng/ml), FasL 7.5 ng/ml, TRAIL 20 ng/ml", "result": "still demonstrable"}, {"measurement": "caspase activity compared with the treatments given independently", "setting": "[4]; FIG. 7: factor combined with PDT (verteporfin 5 ng/ml, 5 J/cm^2), 3 hours", "result": "higher caspase activity"}, {"measurement": "protease activity on DEVD, VEID and IETD peptides, single treatment", "setting": "[4]; FIG. 7: verteporfin 5 ng/ml with light, FasL 7.5 ng/ml or TRAIL 20 ng/ml alone, 3 hours", "result": "modestly increased"}, {"measurement": "nature of the combined effect on caspase cleavage activity", "setting": "[4]; FasL 7.5 ng/ml plus PDT at verteporfin 5 ng/ml", "result": "greater than additive effect"}, {"measurement": "caspase cleavage activity levels relative to PDT or FasL applied independently", "setting": "[4]; FasL 7.5 ng/ml plus PDT at verteporfin 5 ng/ml, 3 hours", "result": "2-5 fold"}, {"measurement": "protease activity compared with FasL or TRAIL alone", "setting": "[4]; factor plus verteporfin in the absence of light irradiation", "result": "no different"}, {"measurement": "cytochrome c in cytosolic extracts, factor alone", "setting": "[5]; [8]", "result": "background levels of cytochrome c"}, {"measurement": "cytochrome c in cytosolic extracts, factor with PDT", "setting": "[5]; PDT in combination with TRAIL 20 ng/ml or FasL 7.5 ng/ml", "result": "readily detectable amounts of cytochrome c"}, {"measurement": "caspase processing and PARP degradation compared with PDT or the factor alone", "setting": "[6]; FasL 7.5 ng/ml or TRAIL 20 ng/ml combined with verteporfin PDT", "result": "more extensive caspase processing and PARP degradation; also recorded: a higher degree of processing"}, {"measurement": "processing of caspases and PARP by the factor alone", "setting": "[6]; [8]", "result": "little or no processing; also recorded: little detectable processing"}, {"measurement": "increase in DEVDase-like cleavage activity versus control cells", "setting": "[7]", "result": "approximately two-fold"}]}
